Assay results from patent publication US20200109211A1 (ELSALYS BIOTECH, published 2020).

Tests used:
[1] = target: T1, recombinant human CD160 protein, soluble form, with a C-terminal tag of 6 histidine residues (R&D SYSTEMS) (human, UniProt O95971 27-159, limits assumed, biotinylated with EZ-Link sulfo-NHS-LC-biotin for BLI and ELISA; not biotinylated when immobilised on the CM5 chip for SPR); assay: ELISA, soluble Fab in periplasmic extract
T1 construct: domain: soluble form; Bought protein; also called hCD160-his; biotinylated CD160
T1 sequence: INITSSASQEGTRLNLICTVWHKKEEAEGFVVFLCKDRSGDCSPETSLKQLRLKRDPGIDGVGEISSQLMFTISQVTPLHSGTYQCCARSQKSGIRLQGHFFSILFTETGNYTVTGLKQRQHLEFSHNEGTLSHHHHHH
Source text: (§1) The binding of the clones selected (from the rounds of selection on CD160 protein and on CHO-CD160 cells) as soluble Fab was also looked at by ELISA and FACS using periplasmic extracts (P.E). The binding of the soluble Fabs to the human CD160 protein, using ELISA, was detected using an anti-c-myc antibody followed by an anti-mouse HRP conjugated antibody. The binding of the soluble Fabs to the CHO cells overexpressing human CD160 was detected using an anti-c-myc antibody followed by a goat anti-mouse APC conjugated antibody. The results of the ELISA and FACS experiments using Fabs expressed at the surface of the phages or in periplasmic extracts confirmed the binding capacity of each of the affinity-matured H7 clones to human CD160.

[2] = target: T2, human CD160 (CD160 GPI isoform) on cells (human, UniProt O95971 25-159, GPI anchor); assay: FACS on CHO cells overexpressing hCD160, soluble Fab in periplasmic extract
T2 construct: whole, on cells; Used for all cells said to carry human CD160: transfected CHO-S and E300 cells and cells that carry it naturally (YT2C2, blood NK, CD8+ T, T CD4, CLL cells); also called hCD160; CHO-S-hCD160 (clone 2G10)
T2 sequence (looked up): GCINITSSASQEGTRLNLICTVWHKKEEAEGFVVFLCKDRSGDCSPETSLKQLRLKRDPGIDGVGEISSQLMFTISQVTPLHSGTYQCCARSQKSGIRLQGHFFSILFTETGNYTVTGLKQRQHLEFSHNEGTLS
Source text: as §1

[3] = target: T1, recombinant human CD160 protein, …; assay: phage ELISA, Fab on phage
Source text: (§2) Thus, phage clones were generated and also made it possible to produce periplasmic extracts of bacteria, containing unpurified soluble Fabs. The individual clones were selected for their binding capacity to the human CD160 protein, by ELISA, and to cells expressing human CD160 by FACS, this being i) either in the form of gene III-Fab fusion proteins expressed at the surface of the filamentous phage or ii) in the form of periplasmic extracts containing fragments of unpurified soluble Fabs. The individual clones (in the form of periplasmic extracts containing fragments of soluble Fabs) were also classified according to their kinetic dissociation constant (kdis).
(§3) From a practical point of view, the binding of the phage to human CD160 was detected using an anti-M13 HRP conjugated antibody. The binding of the phage to the cells expressing CD160 was detected using a mouse anti-M13-biotin antibody followed by Streptavidin-PE.

[4] = target: T2, human CD160 (CD160 GPI isoform) on cells; assay: phage FACS on CHO cells expressing hCD160
Source text: as §2, §3

[5] = target: T1, recombinant human CD160 protein, …; assay: SPR (Biacore 3000), hCD160 on CM5 chip, periplasmic extract with soluble Fab diluted 1:5
Protocol: The binding capacity of the H7 variants was also tested by surface plasmon resonance (SPR). For this, a Biacore 3000 (GE Healthcare) was used. […] The integrity of the immobilized human CD160 was confirmed using the anti-huCD160 H7 IgG1 antibody. For the kinetic measurements, concentrations in cascade of human ECD160 with two-fold dilutions (0.15 μM-10 μM) were injected, twice, in PBS, with a Biacore P20 buffer at 25° C. and a flow rate of 30 μl/min.
The regeneration conditions were tested and 10 pi of 10 mM NaOH/1M NaCl were injected for the regeneration between the sample injections. To analyse the binding of the clones to human CD160, the periplasmic extracts containing the soluble Fabs were diluted to 1:5 in BIACORE P20 buffer (10 mM Hepes, 150 mM NaCl, 3 mM EDTA, 0.005% Tween-20) with a flow rate of 30 μl/min for 120 seconds for the association; the dissociation was measured for 300 seconds.
The maximum absolute response of the binding of each of these variants (expressed as measurement of arbitrary response units at time=120 seconds post-injection of the antibody) was evaluated on a surface coated with CD160 protein.

[6] = target: T1, recombinant human CD160 protein, …; assay: SPR (Biacore), design close to Example 2
[7] = target: T2, human CD160 (CD160 GPI isoform) on cells; assay: flow cytometry on CHO-hCD160 transfectants
Protocol: The binding capacity of the anti-CD160 H7 antibodies and of the variants (D12 and A09) thereof in the IgG4 and IgG1 format and in the IgG1 E345K format was evaluated during the labelling of surface CD160 expressed in a recombinant line CHO-S-hCD160 (clone 2G10) in comparison with non-transfected CHO-S cells, by measuring the median fluorescence index (MFI) (see FIG. 1). For this, 5×10⁺⁵ 2G10 (CHO-S-CD160) and non-transfected CHO-S cells were labelled with 2 μg of each of these antibodies and also with the appropriate control isotypes. In FIG. 1, all the anti-CD160 tested (regardless of the isotype or the IgG format or the variant) specifically recognize human CD160 expressed recombinantly by the CHO-S cells.
In FIG. 1B, the IgG4 variants bind more efficiently to the CHO-hCD160 transfectants than H7 (which results in a median fluorescence increased by a factor of 2 compared with H7 IgG4 ELB01101 or with H7 IgG4 H310A-H435Q ELB01102), this being even in the presence of the H310A-H435Q mutations.

[8] = target: T1, recombinant human CD160 protein, …; assay: BLI (repeats Table 8)
[9] = target: T2, human CD160 (CD160 GPI isoform) on cells; assay: flow cytometry, percentage of labelled YT2C2 NK cells, antibody 0.39-50 nM; the text means better binding
Protocol: (§4) The binding capacity of the anti-CD160 H7 antibody and of the H7 D12 variant in the IgG4, Fab and Fab-linker Fab format was evaluated during the labelling of surface CD160 expressed naturally on a clone of NK cell line (YT2C2), by measuring the percentage of cell labelled=percentage of binding (see FIG. 1C). For this, 2×10⁺⁵ YT2C2 cells were labelled with increasing concentration of antibodies (from 50 nM to 0.39 nM) and also with the appropriate control isotype. […] In FIG. 1C, IgG4 variants ELB01103 and ELB01104 bind more efficiently to the YT2C2 cells than the H7 IgG4 ELB01101 (which results in a EC₅₀ increased by a factor of 10 compared with H7 IgG4). This is also true for the Fab-linker-Fab format ELB01132. By contrast Fab format ELB01122 bind less efficiently to the YT2C2 cells than the H7 IgG4 ELB01101 (which results in a EC₅₀ decreased by a factor of 2 compared with H7 IgG4). This is certainly due to the monovalency of the Fab format.

[10] = target: T1, recombinant human CD160 protein, …; assay: BLI, biotinylated CD160 at 10 nM on streptavidin sensor, antibody 3.13-100 nM
[11] = target: T1, recombinant human CD160 protein, …; assay: BLI
[12] = target: T2, human CD160 (CD160 GPI isoform) on cells; assay: flow cytometry, percentage of labelled YT2C2 NK cells (2x10^5 cells), antibody 0.39 to 50 nM [panel C]
Protocol: as §4

B1: FJ1516MP02A12 (H7 VH family 3) Fab clone (Fab, V domains shown)
VH: QVQLVQSGAEVKKPGASVKVSCKASGYTFTDYWMQWIRQAPGQGLEWIGAIYPGDDDAQFTQKFRGRATLTADKSTSTAYMELSSLRSEDTAVYYCARRGIAAVVGGFDYWGQGTTLTVSS
VL: EIVLTQSPATLSLSPGERATLSCRASQSISNHLHWYQQKPGQAPRLLIKYASQSISGIPARFSGSGSGTDFTLTISSLEPEDFAVYFCQQSNSWPLTFGGGTKVEIK
notes: Tested as Fab on phage and as soluble Fab in periplasmic extract
For B1, the “P.E ELISA O.D450 nm on biotinylated CD160” value (“P.E ELISA O.D450 nm” below) [1] was 0.148 OD450, the “P.E FACS (% binding)” value [2] was 1.23% and the “Phage ELISA O.D450 nm on biotinylated CD160” value (shortened to “Phage ELISA O.D450 nm”) [3] was 6 OD450. The “Phage FACS (% binding)” value [4] was 92.1%, the “Biacore R.U ratio (variant/FaWT 2E07)” value [5] was 1.5 fold and the “Biacore R.U ratio (variant/H7 WT)” value [5] was 3.3 fold. For the same binder, the “Binding response, RU arbitrary unit (at t = 120 s post-mab injection)” value (shortened to “Binding response, RU arbitrary unit”) [5] was 20.1 RU.

B2: FJ1516MP02G05 (H7 VH family 4) Fab clone (Fab, V domains shown)
VH: QVQLVQSGAEVKKPGASVKVSCKASGYTFADYWMQWIRQAPGQGLEWIGAIYPGDDDAQYTQKFRGRATLTADKSTSTAYMELSSLRSEDTAVYYCARRGIAAVVGGFDYWGQGTTLTVSS
VL: EIVLTQSPATLSLSPGERATLSCRASQSISNHLHWYQQKPGQAPRLLIKYASQSISGIPARFSGSGSGTDFTLTISSLEPEDFAVYFCQQSNSWPLTFGGGTKVEIK
notes: as for B1
In the case of B2, the “P.E ELISA O.D450 nm” value [1] is reported as 0.141 OD450, the “P.E FACS (% binding)” value [2] is reported as 1.06% and the “Phage ELISA O.D450 nm” value [3] is reported as 3.46 OD450. The “Phage FACS (% binding)” value [4] was 86.9%, the “Biacore R.U ratio (variant/FaWT 2E07)” value [5] was 1.2 fold and the “Biacore R.U ratio (variant/H7 WT)” value [5] was 2.6 fold. The “Binding response, RU arbitrary unit” value [5] was 16 RU.

B3: FJ1516MP02D09 (H7 VH family 2) Fab clone (Fab, V domains shown)
VH: QVQLVQSGAEVKKPGASVKVSCKASGYTFSESWMQWIRQAPGQGLEWIGAIYPGDDEARVTQKFRGRATLTADKSTSTAYMELSSLRSEDTAVYYCARRGIAAVVGGFDYWGQGTTLTVSS
VL: EIVLTQSPATLSLSPGERATLSCRASQSISNHLHWYQQKPGQAPRLLIKYASQSISGIPARFSGSGSGTDFTLTISSLEPEDFAVYFCQQSNSWPLTFGGGTKVEIK
notes: as for B1
With B3 the “P.E ELISA O.D450 nm” value [1] was 0.174 OD450, the “P.E FACS (% binding)” value [2] was 1.08% and the “Phage ELISA O.D450 nm” value [3] was 3.63 OD450. The “Phage FACS (% binding)” value [4] was 76.4%, the “Biacore R.U ratio (variant/FaWT 2E07)” value [5] was 1.5 fold and the “Biacore R.U ratio (variant/H7 WT)” value [5] was 3.2 fold. The “Binding response, RU arbitrary unit” value [5] was 19.3 RU.

B4: D12 IgG4 S228P/R409K/H310A/H435Q (antibody)
heavy: QVQLVQSGAEVKKPGASVKVSCKASGYTFSDFWMQWIRQAPGQGLEWIGAIYPGDDDARVTQKFRGRATLTADKSTSTAYMELSSLRSEDTAVYYCARRGIAAVVGGFDYWGQGTTLTVSSASTKGPSVFPLAPCSRSTSESTAALGCLVKDYFPEPVTVSWNSGALTSGVHTFPAVLQSSGLYSLSSVVTVPSSSLGTKTYTCNVDHKPSNTKVDKRVESKYGPPCPPCPAPEFLGGPSVFLFPPKPKDTLMISRTPEVTCVVVDVSQEDPEVQFNWYVDGVEVHNAKTKPREEQFNSTYRVVSVLTVLAQDWLNGKEYKCKVSNKGLPSSIEKTISKAKGQPREPQVYTLPPSQEEMTKNQVSLTCLVKGFYPSDIAVEWESNGQPENNYKTTPPVLDSDGSFFLYSKLTVDKSRWQEGNVFSCSVMHEALHNQYTQKSLSLSLG
light: EIVLTQSPATLSLSPGERATLSCRASQSISNHLHWYQQKPGQAPRLLIKYASQSISGIPARFSGSGSGTDFTLTISSLEPEDFAVYFCQQSNSWPLTFGGGTKVEIKRTVAAPSVFIFPPSDEQLKSGTASVVCLLNNFYPREAKVQWKVDNALQSGNSQESVTEQDSKDSTYSLSSTLTLSKADYEKHKVYACEVTHQGLSSPVTKSFNRGEC
notes: also called ELB01104; H7 IgG4 D12 S228P/R409K/H310A/H435Q
For B4, the “Gain in KD/respective IgG” value [6] was 2.9 fold, the Kd [6] was 5 nM and the koff [6] was 0.00123 s⁻¹. For the same binder, the kon [6] was 244000 M⁻¹ s⁻¹, the “median fluorescence, factor against H7 IgG4 H310A-H435Q ELB01102” value [7] was 2 fold and the Kd [8] was 1.49 nM. The koff [8] was 0.000744 s⁻¹, the kon [8] was 499000 M⁻¹ s⁻¹ and the “EC50, factor against H7 IgG4 (ELB01101)” value [9] was 10 fold. For the same binder, the Kd [10] was 1.49 nM, the koff [10] was 0.000744 s⁻¹ and the kon [10] was 499000 M⁻¹ s⁻¹. For the same binder, the “Gain in KD/respective IgG” value [11] was 2 fold and the “EC50 (read off the curve)” value [12] was about 3 nM.
